Reference: paper PMC10576442, “Cullin‐associated and neddylation‐dissociated 1 regulate reprogramming of lipid metabolism through SKP1‐Cullin‐1‐F‐box^FBXO11‐mediated heterogeneous nuclear ribonucleoprotein A2/B1 ubiquitination and promote hepatocellular carcinoma” (Clinical and Translational Medicine, 2023)

Target: T1, HA-FBXO11 fusion protein expressed in E. coli (UniProt Q86XK2 1-927)
T1 construct: FBXO11 with an HA tag, expressed in E. coli; The methods of the GST pull-down speak of total cell lysates, the results of purified proteins from E. coli; source: E. coli, purified
T1 sequence (looked up): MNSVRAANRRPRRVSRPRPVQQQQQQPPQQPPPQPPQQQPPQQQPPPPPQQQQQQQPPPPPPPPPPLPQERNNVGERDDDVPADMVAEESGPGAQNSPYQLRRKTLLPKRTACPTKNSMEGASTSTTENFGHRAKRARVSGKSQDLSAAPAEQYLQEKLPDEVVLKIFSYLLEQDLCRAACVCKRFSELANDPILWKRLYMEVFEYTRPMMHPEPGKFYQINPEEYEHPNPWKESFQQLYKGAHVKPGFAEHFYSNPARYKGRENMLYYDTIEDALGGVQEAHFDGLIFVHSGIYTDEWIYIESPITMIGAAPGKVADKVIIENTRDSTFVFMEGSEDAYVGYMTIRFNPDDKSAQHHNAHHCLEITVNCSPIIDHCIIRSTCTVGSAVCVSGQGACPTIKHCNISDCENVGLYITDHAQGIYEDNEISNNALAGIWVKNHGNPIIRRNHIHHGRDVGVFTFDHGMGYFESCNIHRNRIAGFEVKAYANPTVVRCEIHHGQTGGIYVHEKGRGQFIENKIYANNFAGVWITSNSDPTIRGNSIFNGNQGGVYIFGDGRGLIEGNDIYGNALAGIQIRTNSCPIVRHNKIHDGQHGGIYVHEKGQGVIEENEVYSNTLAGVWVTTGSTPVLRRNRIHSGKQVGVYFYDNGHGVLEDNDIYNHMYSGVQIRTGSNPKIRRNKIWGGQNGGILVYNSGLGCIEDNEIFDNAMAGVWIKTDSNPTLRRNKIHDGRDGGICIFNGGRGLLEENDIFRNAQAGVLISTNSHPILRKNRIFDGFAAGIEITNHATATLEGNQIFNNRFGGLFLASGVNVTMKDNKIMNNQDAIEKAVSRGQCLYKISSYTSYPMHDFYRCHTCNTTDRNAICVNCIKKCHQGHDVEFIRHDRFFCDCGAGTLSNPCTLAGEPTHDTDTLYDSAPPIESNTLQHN
Assay: pull-down; GST pull-down (Magne GST pull-down system), GST-hnRNPA2B1 immobilised on magnetic beads, overnight at 4 °C, HA-FBXO11 expressed in E. coli, western blot
Details: both partners purified

B1: GST-hnRNPA2B1 (natural protein, UniProt P22626 1-353, looked up)
chain: MEKTLETVPLERKKREKEQFRKLFIGGLSFETTEESLRNYYEQWGKLTDCVVMRDPASKRSRGFGFVTFSSMAEVDAAMAARPHSIDGRVVEPKRAVAREESGKPGAHVTVKKLFVGGIKEDTEEHHLRDYFEEYGKIDTIEIITDRQSGKKRGFGFVTFDDHDPVDKIVLQKYHTINGHNAEVRKALSRQEMQEVQSSRSGRGGNFGFGDSRGGGGNFGPGPGSNFRGGSDGYGSGRGFGDGYNGYGGGPGGGNFGGSPGYGGGRGGYGGGGPGYGNQGGGYGGGYDNYGGGNYGSGNYNDFGNYNQQPSNYGPMKSGNFGGSRNMGGPYGGGNYGPGGSGGSGGYGGRSRY
notes: hnRNPA2B1 as a GST fusion protein; source: E. coli BL21 (DE3), purified (GST-tag purification resin)
- binding result: binds
